Values joined by “and” are separate entries in the source; they are usually repeats but may differ in a detail not shown here. Equal values may be shown once.
Settings: Thermal, CD, whole UniProt chain shown

B1: Iron-sulfur cluster assembly protein CyaY wild type, P27838 (protein)
chain: MNDSEFHRLADQLWLTIEERLDDWDGDSDIDCEINGGVLTITFENGSKIIINRQEPLHQVWLATKQGGYHFDLKGDEWICDRSGETFWDLLEQAATQQAGETVSFR
Q: With B1 as the protein, how does the Tm (Escherichia coli (strain K12), pH 6, phosphate 20 mM, reversible: yes (>95%)) read?
A: Its Tm is 53.5 °C.

Q: What about the Tm (Escherichia coli (strain K12), pH 7, Hepes 10 mM, CaCl2 1 mM, reversible: yes (>95%)) of the same protein?
A: The Tm was 62.7 °C.

Q: And the Tm (Escherichia coli (strain K12), pH 7, Hepes 10 mM, reversible: yes (86%))?
A: The Tm was 61.2 °C.

Q: What about the Tm (Escherichia coli (strain K12), pH 7, Hepes 10 mM, reversible: yes (>95%)) of the same protein?
A: Its Tm is 50.4 °C.

Q: And the Tm (Escherichia coli (strain K12), pH 7, phosphate 20 mM, reversible: yes (>95%))?
A: Its Tm is 53.8 °C.

Q: What about the Tm (Escherichia coli (strain K12), pH 7.5, Hepes 10 mM, reversible: yes (86%)) of the same protein?
A: The Tm was 60.5 °C.

Q: What about the Tm (Escherichia coli (strain K12), pH 7.5, Hepes 10 mM, reversible: yes (>95%)) of the same protein?
A: The Tm was 54.8 °C and 58.3 °C.

Q: And the Tm (Escherichia coli (strain K12), pH 8, phosphate 20 mM, reversible: yes (>95%))?
A: Its Tm is 53.8 °C.

Q: And the Tm (Escherichia coli (strain K12), pH 8, phosphate 200 mM, reversible: yes (>95%))?
A: Its Tm is 45.8 °C.

B2: Frataxin homolog, mitochondrial wild type, Q07540 (protein)
chain: MIKRSLASLVRVSSVMGRRYMIAAAGGERARFCPAVTNKKNHTVNTFQKRFVESSTDGQVVPQEVLNLPLEKYHEEADDYLDHLLDSLEELSEAHPDCIPDVELSHGVMTLEIPAFGTYVINKQPPNKQIWLASPLSGPNRFDLLNGEWVSLRNGTKLTDILTEEVEKAISKSQ
Q: Which results are given for B2?
A: Tm (Saccharomyces cerevisiae (strain ATCC 204508 / S288c), pH 6, phosphate 20 mM, reversible: yes (>95%)): 39.9 °C; Tm (Saccharomyces cerevisiae (strain ATCC 204508 / S288c), pH 6, phosphate 150 mM, reversible: yes (>95%)): 49 °C; Tm (Saccharomyces cerevisiae (strain ATCC 204508 / S288c), pH 7, Hepes 10 mM, CaCl2 1 mM, reversible: yes (>95%)): 51.1 °C; Tm (Saccharomyces cerevisiae (strain ATCC 204508 / S288c), pH 7, Hepes 10 mM, CaCl2 150 mM, reversible: yes (>95%)): 52.9 °C; Tm (Saccharomyces cerevisiae (strain ATCC 204508 / S288c), pH 7, Hepes 10 mM, NaCl 150 mM, reversible: yes (>95%)): 44.6 °C; Tm (Saccharomyces cerevisiae (strain ATCC 204508 / S288c), pH 7, Hepes 10 mM, NaF 150 mM, reversible: yes (>95%)): 44.8 °C; Tm (Saccharomyces cerevisiae (strain ATCC 204508 / S288c), pH 7, phosphate 150 mM, reversible: yes (>95%)): 48.6 °C and 53.6 °C; Tm (Saccharomyces cerevisiae (strain ATCC 204508 / S288c), pH 7.2, Hepes 10 mM, NaF 150 mM, reversible: yes (>95%)): 46.9 °C; Tm (Saccharomyces cerevisiae (strain ATCC 204508 / S288c), pH 7.2, Hepes 10 mM, reversible: No): 44.8 °C; Tm (Saccharomyces cerevisiae (strain ATCC 204508 / S288c), pH 7.2, Hepes 10 mM, reversible: yes (47%)): 42.3 °C; Tm (Saccharomyces cerevisiae (strain ATCC 204508 / S288c), pH 7.2, Hepes 10 mM, reversible: yes (86%)): 37.9 °C; Tm (Saccharomyces cerevisiae (strain ATCC 204508 / S288c), pH 7.4, Hepes 10 mM, reversible: yes (>95%)): 35.5 °C; Tm (Saccharomyces cerevisiae (strain ATCC 204508 / S288c), pH 8, phosphate 150 mM, reversible: yes (>95%)): 45.9 °C

B3: Frataxin, mitochondrial wild type, Q16595 (protein)
chain: MWTLGRRAVAGLLASPSPAQAQTLTRVPRPAELAPLCGRRGLRTDIDATCTPRRASSNQRGLNQIWNVKKQSVYLMNLRKSGTLGHPGSLDETTYERLAEETLDSLAEFFEDLADKPYTFEDYDVSFGSGVLTVKLGGDLGTYVINKQTPNKQIWLSSPSSGPKRYDWTGKNWVYSHDGVSLHELLAAELTKALKTKLDLSSLAYSGKDA
Q: Which results are given for B3?
A: Tm (Homo sapiens, pH 6, phosphate 150 mM, reversible: yes (>95%)): 64.9 °C; Tm (Homo sapiens, pH 7, Hepes 10 mM, CaCl2 1 mM, reversible: yes (>95%)): 65.9 °C; Tm (Homo sapiens, pH 7, Hepes 10 mM, NaCl 150 mM, reversible: yes (>95%)): 65 °C; Tm (Homo sapiens, pH 7, Hepes 10 mM, reversible: yes (88%)): 68.6 °C; Tm (Homo sapiens, pH 7, phosphate 20 mM, reversible: yes (>95%)): 60 °C; Tm (Homo sapiens, pH 7, phosphate 150 mM, reversible: yes (>95%)): 65.7 °C

Reference: FireProtDB (doi:10.1021/bi036049+)
